According to the supplement of paper PMC10567573:

B1: ATL3 (parent)
chain: FSFRYQQELEEEIKELYENFCKHN
B2: ACBD3 (parent)
chain: YVASHKIEKEEQEKKRKEEEERRR

Variants of: B1
Assay: protein stability index of a GFP-peptide fusion (GPS, HEK-293T) (PSI 1-6); higher = more stable
Settings: c terminus: a fixed tail appended
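Also: lentivirally expressed fusions sorted by FACS into six bins by GFP to DsRed ratio, PSI derived from sequencing read proportions per bin multiplied by bin number.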

Protein stability index of substitutions, site by site:
Q6: H 2.03; C 2.38; A 2.21; E 2.16; W 1.51; M 2.08; K 2.26; L 2.19; Y 2.24; R 2.03; V 2.11; D 2.35; S 2; P 2.09; G 2.67; T 2.04; F 2.1; I 1.57; N 2.06
Q7: Y 2.91; P 3.07; N 2.51; M 2.39; K 2.46; W 1.84; E 2.64; R 2.3; T 2.59; D 2.35; A 2.04; H 2.2; G 3.13; I 1.75; C 2.15; S 2.24; L 1.92; V 2.17; F 1.65
L9: I 2.5; T 3.48; H 3.64; K 2.68; A 2.6; S 2.41; E 2.11; M 2.65; D 3.2; C 3.22; Q 3.09; N 2.81; G 2.75; R 3.33; F 2.16; P 2.63
Y5: F 2.5; L 2.13; I 2.77; H 2.84; N 3.29; D 3.55; V 1.93; W 2.21; A 3.51; S 3.35; P 3.45; T 3.09; R 3.56; Q 2.63; M 3.4; K 2.93; C 2.44; E 3.07
F1: C 3.11; L 3.32; Q 3.11; E 4.04; H 3.35; D 3.8; K 3.01; S 3.89; R 1.95; I 2.46; N 3.74; P 3.43; Y 2.33; G 3.93; T 3.87; W 1.95; A 2.78; V 2.54; M 2.03
F3: M 2.96; S 2.79; V 2.51; Y 2.01; G 3.15; P 3.79; K 2.09; R 2.83; I 2.52; E 3.04; T 3.23; N 2.85; Q 4.39; L 2.7; A 2.93; H 3.23; D 3.14; C 2.59; W 2.82
E8: H 2.27; L 2.1; S 1.89; M 1.97; K 1.69; C 2.11; W 2.09; F 1.89; I 1.72; G 2.68; Q 2.02; V 1.46; A 1.91; R 1.65; P 2.02; N 2.44; T 1.79; Y 1.79
S2: G 2.53; Q 2.6; H 2.29; R 2.62; E 2.52; W 1.8; K 2.58; Y 2.73; T 2.36; F 1.75; I 1.7; M 1.52; V 1.65; L 1.85; D 2.93; C 3.27; N 2.37; P 2.63; A 2.51
R4: G 2.88; T 2.02; V 2.36; M 1.96; N 2.96; L 2.09; F 2.45; K 2.33; I 1.87; A 2.05; Q 2.82; H 2.9; P 2.87; D 3.13; Y 2.11; C 2.23; E 2.63; S 2.1; W 1.61

Variants of: B2
Assay: as above
Settings: c terminus: a fixed tail appended

Protein stability index, by site and new letter:
R16: Q 2.94; C 2.67; T 3.41; H 2.4; D 2.76; W 2.27; S 2.65; P 2.6; Y 2.74; M 3.23; G 2.88; K 2.92; A 3.02; L 3; N 2.63; I 2.69; F 2.34; E 3.75; V 2.24
E21: K 2.35; I 2.57; T 2.38; C 2.21; H 3.13; W 2.67; A 1.54; P 2.35; M 2.04; R 2.04; V 3.05; L 2.28; D 2.25; N 2.07; Q 2.37; F 2.45; S 2.52; G 2.03; Y 2.15
R22: V 2.89; T 3.28; H 2.42; A 2.45; W 2.28; F 2.5; E 3.02; Q 3.11; N 3.14; S 2.99; K 2.69; G 2.68; P 2.72; D 3.24; L 1.89; Y 2.87; I 3.59; C 2.69; M 2.76
R23: H 2.29; L 2.7; W 2.02; E 3.35; M 2.24; Q 2.71; S 2.47; T 3.43; K 2.74; P 2.46; Y 2.64; A 2.85; G 3.03; D 3.16; N 2.74; C 2.44; F 2.82; V 2.65; I 2.65
K17: T 2.35; R 3.32; Q 2.07; M 2.45; N 2.99; W 1.84; L 3.14; P 3.01; F 2.32; V 2.9; Y 2.06; C 2.41; I 2.35; G 3.79; D 2.77; H 2.74; A 2.88; E 2.93; S 3.09
E20: G 1.96; Y 1.58; T 2.57; A 2.81; K 2.83; D 2.63; P 1.98; F 2.5; R 1.91; Q 2.36; N 2.56; C 3.17; L 1.71; H 2.39; S 2.62; I 2.58; V 1.82; M 2.48
R24: G 2.54; I 2.52; Y 2.42; E 2.19; V 3.46; N 3.67; W 2.63; C 2.83; K 2.65; M 2.65; L 2.75; T 2.27; P 2.04; D 3.35; A 2.94; F 2.85; S 2.7; Q 3.12; H 3.01
E19: P 1.81; R 2.25; M 1.98; T 2.57; S 2.54; K 2.48; C 2.53; N 1.94; Q 2.61; I 3.02; L 2.39; V 2.59; D 2.74; G 2.03; W 2.19; F 2.68; Y 2.38; A 2.6; H 2.44
E18: T 2.41; M 2.46; L 2.16; H 1.6; K 2.05; C 2.12; R 2.26; I 2.42; W 3.53; N 1.85; S 2.22; Y 1.94; P 2.25; V 1.95; D 2.38; A 3.07; Q 2.43
